Experimental data published in paper PMC7424515, “Molecular characterization of pyridoxine 5′-phosphate oxidase and its pathogenic forms associated with neonatal epileptic encephalopathy” (Scientific Reports, 2020).

Assays:
[1] = biological target: human PNPO X262Q variant (human); experiment: SEC; Superdex 200 10/300 GL; 20 mM potassium-phosphate buffer, pH 7.6, 150 mM NaCl, 5 mM 2-mercaptoethanol; oligomeric state from elution profile
[2] = biological target: the molecule itself; experiment: as above

stoichiometry N [1]	Molecule	stoichiometry N [2]
2	human PNPO X262Q variant (enzyme)	–
–	human pyridoxine 5′-phosphate oxidase (PNPO), wild type (enzyme, also called wild type PNPO; pyridoxal 5′-phosphate synthase; source: E. coli, pET28-PNPO, purified (HisTrap metal-chelation chromatography)) MTCWLRGVTATFGRPAEWPGYLSHLCGRSAAMDLGPMRKSYRGDREAFEETHLTSLDPVKQFAAWFEEAVQCPDIGEANAMCLATCTRDGKPSARMLLLKGFGKDGFRFFTNFESRKGKELDSNPFASLVFYWEPLNRQVRVEGPVKKLPEEEAECYFHSRPKSSQIGAVVSHQSSVIPDREYLRKKNEELEQLYQDQEVPKPKSWGGYVLYPQVMEFWQGQTNRLHDRIVFRRGLPTGDSPLGPMTHRGEEDWLYERLAP	2
–	human PNPO G118R variant (enzyme, Pathogenic variant found in PNPOD patients; source: E. coli Rosetta(λDE3), purified (HisTrap metal-chelation chromatography)) MTCWLRGVTATFGRPAEWPGYLSHLCGRSAAMDLGPMRKSYRGDREAFEETHLTSLDPVKQFAAWFEEAVQCPDIGEANAMCLATCTRDGKPSARMLLLKGFGKDGFRFFTNFESRKRKELDSNPFASLVFYWEPLNRQVRVEGPVKKLPEEEAECYFHSRPKSSQIGAVVSHQSSVIPDREYLRKKNEELEQLYQDQEVPKPKSWGGYVLYPQVMEFWQGQTNRLHDRIVFRRGLPTGDSPLGPMTHRGEEDWLYERLAP	2
–	human PNPO R116Q/R225H double variant (enzyme, Combination of replacements found together in PNPOD patients; source: E. coli Rosetta(λDE3), purified (HisTrap metal-chelation chromatography)) MTCWLRGVTATFGRPAEWPGYLSHLCGRSAAMDLGPMRKSYRGDREAFEETHLTSLDPVKQFAAWFEEAVQCPDIGEANAMCLATCTRDGKPSARMLLLKGFGKDGFRFFTNFESQKGKELDSNPFASLVFYWEPLNRQVRVEGPVKKLPEEEAECYFHSRPKSSQIGAVVSHQSSVIPDREYLRKKNEELEQLYQDQEVPKPKSWGGYVLYPQVMEFWQGQTNHLHDRIVFRRGLPTGDSPLGPMTHRGEEDWLYERLAP	2
–	human PNPO R225H variant (enzyme, Pathogenic variant found in PNPOD patients; source: E. coli Rosetta(λDE3), purified (HisTrap metal-chelation chromatography)) MTCWLRGVTATFGRPAEWPGYLSHLCGRSAAMDLGPMRKSYRGDREAFEETHLTSLDPVKQFAAWFEEAVQCPDIGEANAMCLATCTRDGKPSARMLLLKGFGKDGFRFFTNFESRKGKELDSNPFASLVFYWEPLNRQVRVEGPVKKLPEEEAECYFHSRPKSSQIGAVVSHQSSVIPDREYLRKKNEELEQLYQDQEVPKPKSWGGYVLYPQVMEFWQGQTNHLHDRIVFRRGLPTGDSPLGPMTHRGEEDWLYERLAP	2
–	human PNPO R141C variant (enzyme, Pathogenic variant found in a PNPOD patient; source: E. coli Rosetta(λDE3), purified (HisTrap metal-chelation chromatography)) MTCWLRGVTATFGRPAEWPGYLSHLCGRSAAMDLGPMRKSYRGDREAFEETHLTSLDPVKQFAAWFEEAVQCPDIGEANAMCLATCTRDGKPSARMLLLKGFGKDGFRFFTNFESRKGKELDSNPFASLVFYWEPLNRQVCVEGPVKKLPEEEAECYFHSRPKSSQIGAVVSHQSSVIPDREYLRKKNEELEQLYQDQEVPKPKSWGGYVLYPQVMEFWQGQTNRLHDRIVFRRGLPTGDSPLGPMTHRGEEDWLYERLAP	2
